Entries after “also recorded” stand apart in the source; their conditions may differ.
Columns and labels:
B. pseudomallei isolates = test: microbe, parasite or virus in culture; assay type: cell-based, Burkholderia pseudomallei
Bacillus anthracis = assay type: cell-based
Burkholderia mallei = test: microbe, parasite or virus in culture; assay type: cell-based
Yersinia pestis = test: microbe, parasite or virus in culture; assay type: cell-based
[1] = tested on: B. pseudomallei strains 1026b and MSHR 305; assay type: cell-based, Burkholderia pseudomallei

B1: bovine lactoferrin (protein, UniProt P24627 20-708, looked up)
Lactotransferrin: APRKNVRWCTISQPEWFKCRRWQWRMKKLGAPSITCVRRAFALECIRAIAEKKADAVTLDGGMVFEAGRDPYKLRPVAAEIYGTKESPQTHYYAVAVVKKGSNFQLDQLQGRKSCHTGLGRSAGWIIPMGILRPYLSWTESLEPLQGAVAKFFSASCVPCIDRQAYPNLCQLCKGEGENQCACSSREPYFGYSGAFKCLQDGAGDVAFVKETTVFENLPEKADRDQYELLCLNNSRAPVDAFKECHLAQVPSHAVVARSVDGKEDLIWKLLSKAQEKFGKNKSRSFQLFGSPPGQRDLLFKDSALGFLRIPSKVDSALYLGSRYLTTLKNLRETAEEVKARYTRVVWCAVGPEEQKKCQQWSQQSGQNVTCATASTTDDCIVLVLKGEADALNLDGGYIYTAGKCGLVPVLAENRKSSKHSSLDCVLRPTEGYLAVAVVKKANEGLTWNSLKDKKSCHTAVDRTAGWNIPMGLIVNQTGSCAFDEFFSQSCAPGADPKSRLCALCAGDDQGLDKCVPNSKEKYYGYTGAFRCLAEDVGDVAFVKNDTVWENTNGESTADWAKNLNREDFRLLCLDGTRKPVTEAQSCHLAVAPNHAVVSRSDRAAHVKQVLLHQQALFGKNGKNCPDKFCLFKSETKNLLFNDNTECLAKLGGRPTYEEYLGTEYVTAIANLKKCSTSPLLEACAFLTR
- Minimal Inhibitory Concentration (B. pseudomallei isolates): >91,429 μg/mL
- concentration of bLF at which all isolates were capable of growth (highest concentration tested) (B. pseudomallei isolates): > 91.429 mg/mL
- inhibition of growth, overall result in words (B. pseudomallei isolates): not directly inhibited
- Minimal Inhibitory Concentration (Bacillus anthracis): >91,400 μg/mL
- inhibition of growth, result in words (Bacillus anthracis): no observed inhibition of growth
- Minimal Inhibitory Concentration (Burkholderia mallei): ≧91,400 μg/mL
- inhibition of growth, result in words (Burkholderia mallei): generally did not inhibit B. mallei growth by itself
- Minimal Inhibitory Concentration (Yersinia pestis): >91,400 μg/mL
- inhibition of growth, result in words (Yersinia pestis): did not inhibit Y. pestis growth at any concentration by itself
- bacterial growth by T24h compared with positive/untreated control [1]: grew to match or exceed the concentration of the positive control; also recorded: replicate to the same levels as those in the untreated controls
- bactericidal effect, overall result in words [1]: much more minor direct bactericidal effect
- initial reduction in bacterial concentration [1]: 1 to 2 log10
- kill curve: evolution of microbial load during time [1]: impact can be seen at T6h (standalone); also recorded: impact can be seen at T4h (standalone)

Source: US20150224177A1 (priority 2014, published 2015)
